According to article PMC8698692, “Generation of a Novel High-Affinity Antibody Binding to PCSK9 Catalytic Domain with Slow Dissociation Rate by CDR-Grafting, Alanine Scanning and Saturated Site-Directed Mutagenesis for Favorably Treating Hypercholesterolemia” (Biomedicines, 2021):

What was measured:
[1] = molecular target: T1, human proprotein convertase subtilisin/kexin type 9 (hPCSK9), recombinant (Homo sapiens, UniProt Q8NBP7, biotinylated with a biotinylation kit for the BLI assay only (sites not given)); test: BLI; ForteBio Octet QKe; biotinylated hPCSK9 (50 μg/mL) immobilised on streptavidin biosensors; 2-fold dilutions of antibody (scFvs 6000-93.75 nM, mAbs 800-12.5 nM), association 300 s or longer, dissociation 600 s in SD buffer (PBS, 0.02% Tween 20, 0.1% BSA, pH 7.4); global fit; details: both partners purified
T1 construct: signal peptide in the construct; source: CHO-3E7, transiently transfected (pTT5-hPCSK9), supernatant purified (Ni-IMAC, Superdex 200 SEC)
T1 sequence (Q8NBP7 31-692): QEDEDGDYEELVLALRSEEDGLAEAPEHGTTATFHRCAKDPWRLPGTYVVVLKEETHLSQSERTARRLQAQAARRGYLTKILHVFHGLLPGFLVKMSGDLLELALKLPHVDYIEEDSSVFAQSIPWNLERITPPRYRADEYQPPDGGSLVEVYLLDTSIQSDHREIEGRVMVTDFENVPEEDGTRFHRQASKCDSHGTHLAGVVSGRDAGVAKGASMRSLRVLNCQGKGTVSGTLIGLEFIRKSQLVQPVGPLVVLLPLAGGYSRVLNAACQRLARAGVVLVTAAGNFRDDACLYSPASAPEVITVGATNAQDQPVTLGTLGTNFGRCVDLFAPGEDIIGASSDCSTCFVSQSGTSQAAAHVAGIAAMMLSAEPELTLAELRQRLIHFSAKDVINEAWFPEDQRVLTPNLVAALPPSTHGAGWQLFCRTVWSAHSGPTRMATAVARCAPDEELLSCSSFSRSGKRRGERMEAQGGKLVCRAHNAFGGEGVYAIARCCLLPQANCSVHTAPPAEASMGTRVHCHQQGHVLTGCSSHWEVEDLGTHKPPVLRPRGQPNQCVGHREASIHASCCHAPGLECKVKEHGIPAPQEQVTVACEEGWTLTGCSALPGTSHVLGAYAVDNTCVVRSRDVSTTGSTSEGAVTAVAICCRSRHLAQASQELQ

[2] = molecular target: T1, human proprotein convertase …; test: ELISA; non-competitive ELISA; hPCSK9 coated at 1 μg/mL and 2 μg/mL; purified m5E12 at 10^-1 to 10^5 ng/mL; HRP goat anti-mouse IgG; Kaff = (n − 1)/2(n[Ab']t − [Ab]t); details: both partners purified

Binder	Kd [1] [nM]	koff [1] [s⁻¹]	Ka [2] [M⁻¹]
h5E12scFv, humanized 5E12 scFv by CDR grafting without back mutation (scFv, V domains shown, VH of h5E12scFv: CDRs of m5E12 grafted onto the human heavy chain GenBank AMK70123.1; (Gly4Ser)3 linker; the format VH-(Gly4Ser)3-VL is told for m5E12scFv, of which this is the humanized form; VL of h5E12scFv: CDRs of m5E12 grafted onto the human light chain GenBank APZ85158.1; Cloned in pET-27b with the pelB signal peptide; isolated from the periplasm; source: E. coli BL21 (DE3), periplasm, …) VH: QVQLVQSGAEVKKPGASVKVSCKASGYTFTSYWMHWVRQAPGQGLEWMGEINPSNGRTDHSEKFKNRVTMTRDTSTSTVYMELSSLRSEDTAVYYCARFHYDYDYFDYWGQGTLVTVSS VL: DIVMTQSPSSLSASVGDRVTITCKASRNVGNSVGWYQQKPGKAPKLLIYSASYRYSGVPSRFSGSGSGTDFTLTISSLQPEDFATYYCQQYNRYPLTFGQGTKVEIK	171	0.00108	
h5E12scFv-bm, humanized 5E12 scFv by CDR grafting with back mutation (scFv, V domains shown, (Gly4Ser)3 linker; the format VH-(Gly4Ser)3-VL is told for m5E12scFv, of which this is a humanized form; Cloned in pET-27b with the pelB signal peptide; isolated from the periplasm; source: E. coli BL21 (DE3), periplasm, purified (Ni-NTA, Superdex 75 SEC)) VH: EVQLVQSGAEVKKPGASVKVSCKASGYTFTSYWMHWVKQAPGQGLEWIGEINPSNGRTDHSEKFKNKATMTVDTSTSTAYLELSSLRSEDTSVYYCARFHYDYDYFDYWGQGTLVTVSS VL: DIVITQSTSSLSASVGDRVTITCKASRNVGNSVGWYQQKPGKAPKILIYSASYRYSGVHSRFSGSGSGTDFTLTISSLQPEDFAEYFCQQYNRYPLTFGEGTKVEIK		0.01	
m5E12scFv, murine 5E12 single-chain variable fragment (scFv, V domains shown, VH of m5E12; (Gly4Ser)3 linker between VH and VL; VL of m5E12; Cloned in pET-27b with the pelB signal peptide; isolated from the periplasm; also called murine 5E12 scFv; source: E. coli BL21 (DE3), periplasm, purified (Ni-NTA, Superdex 75 SEC)) VH: EVQLEQSGAELVKPGASVKLSCKASGYTFTSYWMHWVKQRPGQGLEWIGEINPSNGRTDHSEKFKNKATLTVDKSSTTAYLQLSSLTSEDSSVYYCARFHYDYDYFDYWGQGTTLTVSS VL: DIVITQSTKFMSTSVGDRVSVTCKASRNVGNSVGWYQQKPGQSPKILIYSASYRYSGVHDRFTGSGSGTDFTLTISNVQSEDLAEYFCQQYNRYPLTFGEGTKLELK		0.00744	
m5E12, murine monoclonal antibody against hPCSK9 (IgG1, kappa) (antibody, V domains shown, VH of m5E12; mouse IgG1 heavy-chain constant region (isotype found with a kit; BALB/c mice); VL of m5E12; mouse kappa light-chain constant region (isotype found with a kit); Mouse IgG1 kappa; also called mAb 5E12; source: hybridoma 5E12 supernatant (screening ELISA); mouse ascites, purified (protein A)) VH: EVQLEQSGAELVKPGASVKLSCKASGYTFTSYWMHWVKQRPGQGLEWIGEINPSNGRTDHSEKFKNKATLTVDKSSTTAYLQLSSLTSEDSSVYYCARFHYDYDYFDYWGQGTTLTVSS VL: DIVITQSTKFMSTSVGDRVSVTCKASRNVGNSVGWYQQKPGQSPKILIYSASYRYSGVHDRFTGSGSGTDFTLTISNVQSEDLAEYFCQQYNRYPLTFGEGTKLELK			1.04e+09
